Earlier results on two substances are cited in publication PMC11899465.

The term Kd denotes the free concentration of one partner at which half of the binding sites on the other are occupied at equilibrium, for simple one-to-one binding.

Data set [1] has as its target CD137 (Homo sapiens) (UniProt Q07011).
Data set [2] shares this target. This is another data set of the same source.

Where two headings read alike, the source gives them in different places.

CD137 (Homo sapiens), sequence (Q07011 24-255): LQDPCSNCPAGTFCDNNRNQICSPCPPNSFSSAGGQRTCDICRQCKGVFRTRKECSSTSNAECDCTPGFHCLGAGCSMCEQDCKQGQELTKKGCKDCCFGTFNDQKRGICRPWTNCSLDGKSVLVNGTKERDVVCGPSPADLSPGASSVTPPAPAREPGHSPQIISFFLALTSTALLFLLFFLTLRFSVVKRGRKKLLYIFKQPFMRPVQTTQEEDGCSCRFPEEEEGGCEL
CD137L (monomer), sequence (P41273 whole entry): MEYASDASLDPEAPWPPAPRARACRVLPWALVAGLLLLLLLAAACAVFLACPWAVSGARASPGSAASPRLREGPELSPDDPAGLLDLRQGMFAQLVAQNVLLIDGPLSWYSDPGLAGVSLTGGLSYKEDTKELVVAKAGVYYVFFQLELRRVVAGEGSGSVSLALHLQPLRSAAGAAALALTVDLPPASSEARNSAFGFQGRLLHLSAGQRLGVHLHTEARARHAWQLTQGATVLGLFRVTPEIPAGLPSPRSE
CD137L (homotrimer), sequence (P41273 whole entry): as above

Take CD137L (monomer) (from UniProt P41273): the Kd with CD137 (Homo sapiens) [1] is 55.2 nM. Consider “CD137L (homotrimer) (from UniProt P41273)”, for which, in the data set with CD137 (Homo sapiens) [2], the Kd was 1.2 nM.
